From patent publication US20200299400A1

Target: human GITR on activated CD4 T cells (human) (UniProt Q9Y5U5)
Assay: FACS binding to activated human CD4 T cells

Chain of human GITR on activated CD4 T cells (human) (Q9Y5U5 26-241): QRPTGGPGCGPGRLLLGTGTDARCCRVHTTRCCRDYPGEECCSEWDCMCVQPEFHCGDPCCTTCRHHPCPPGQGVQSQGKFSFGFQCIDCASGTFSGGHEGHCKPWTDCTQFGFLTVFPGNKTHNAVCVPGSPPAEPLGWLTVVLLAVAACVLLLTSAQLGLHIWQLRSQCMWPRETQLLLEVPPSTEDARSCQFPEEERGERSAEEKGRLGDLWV

| Substance | EC50 [µM] |
| --- | --- |
| unrelated hIgG1 | 0.132 |
| unrelated hIgG2 | 0.00673 |
